A word on the Kd: it is the free concentration of one partner at which half of the binding sites on the other are occupied at equilibrium, for simple one-to-one binding. Lower therefore signals tighter binding. Usually koff stands for the first-order rate constant of dissociation. Lower therefore signals a long-lived complex. Broadly, the kon is the second-order rate constant of association. The low end stands for slow association, the high end for fast association.

From patent US20240294593A1 (Genentech, published 2024) come the findings set out here.

For experiment [1], the target named is T1, human PD-1-His (human, UniProt Q15116 25-167, limits assumed).
T1 construct: Antigen of the Octet assays; not shown: His tag
In words: Octet (BLI); antibody captured on anti-human Fc (AHC) biosensors and dipped into multiple concentrations of human PD-1-His.

For experiment [2], the target named is T1, human PD-1-His. In words: Octet. (BLI is a label-free optical method that tracks binding on a fibre tip over time.)
Experiment [3] has as its target T1, human PD-1-His. In words: Octet affinity screen; bivalent IgG1 format; reference mAb C[PD-1]_H1L1.
For experiment [4], the target named is T1, human PD-1-His. In words: Octet (BLI); XENP29706 loaded on the biosensor, analyte Sample ID XENP15593 at 300, 30, 3 nM; KD (M) printed in the legend under the plot.
Experiment [5] deals with T2, cynomolgus PD-1-His (cynomolgus monkey).
T2 chain: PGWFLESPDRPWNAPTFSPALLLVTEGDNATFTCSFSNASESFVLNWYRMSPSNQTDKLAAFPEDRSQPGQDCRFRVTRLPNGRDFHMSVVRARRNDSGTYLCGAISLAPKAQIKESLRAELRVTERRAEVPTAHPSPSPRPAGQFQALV
In words: Octet (BLI); antibody captured on anti-human Fc (AHC) biosensors and dipped into multiple concentrations of cynomolgus PD-1-His.

T1 sequence (Q15116 25-167 limits assumed): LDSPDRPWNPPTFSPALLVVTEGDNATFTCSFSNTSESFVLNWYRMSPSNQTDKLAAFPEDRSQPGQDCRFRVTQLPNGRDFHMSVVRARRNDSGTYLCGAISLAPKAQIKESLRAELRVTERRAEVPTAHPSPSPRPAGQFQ

B1: XENP28519 (humanized mAb A, bivalent mAb) (antibody, human IgG1, kappa, V domains shown)
VH: QVQLQESGPGLVKPSQTLSLTCTVSGHSITSDYAWNWIRQPPGKKLEWIGYISYSGYTTYNPSLKSRVTISRDTSKNQFSLKLSSVTAADTAVYFCARDLDYGPWFAYWGQGTLVTVSS
VL: DIQMTQSPSSLSASVGDRVTITCRASENIHNYLAWYQQKPGKSPKLLVYNVKTLADGVPSRFSGSGSGTDYTLTISSLQPEDFATYYCQHFWSSPWTFGGGTKVEIKR
The molecule B1 yielded a Kd in experiment [1] of 11.9 nM.

B2: mAb C[PD-1]_H1_L1.1 (bivalent IgG1) (antibody, V domains shown)
VH: EVQLVESGGGLVQPGGSLRLSCAASGFTFSSFGMHWVRQAPGKGLEWVSYISSGSSIIYYADSVKGRFTISRDNAKNSLYLQMNSLRAEDTAVYYCARGGRLVWSPDYWGQGTLVTVSS
VL: DIVMTQSPDSLAVSLGERATINCKSSQSLLHSGNQKNYLTWYQQKPGQPPKLLIYWASTRESGVPDRFTGSGSGTDFTLTISSLQAEDVAVYYCQNDYSYPFTFGSGTKLEIKR
notes: Bivalent IgG1 format with E233P/L234V/L235A/G236_/S267K; copies: 2 + 2
In experiment [2], B2 returned a Kd of 5.46 nM, a koff of 0.000532 s⁻¹ and an on-rate constant (kon) of 97300 M⁻¹ s⁻¹. Further, the “fold improved affinity over WT” value in experiment [3] was over 2 fold.

B3: XENP29706 (W100F) (antibody, V domains shown)
VH: EVQLVESGGGLVQPGGSLRLSCAASGFTFSSFGMHWVRQAPGKGLEWVSYISSGSSIIYYADSVKGRFTISRDNAKNSLYLQMNSLRAEDTAVYYCARGGRLVFSPDYWGQGTLVTVSS
VL: DIVMTQSPDSLAVSLGERATINCKSSQSLLNSGNQKNYLTWYQQKPGQPPKLLIYWASTRESGVPDRFTGSGSGTDFTLTISSLQAEDVAVYYCQNDYSYPFTFGSGTKLEIKR
notes: the panel label gives the substitution; also called mAb C[PD-1]_H1L1 W100F (Kabat) variant; copies: 2 + 2
For the molecule B3, the Kd in experiment [4] stood at 309 nM.

B4: XENP28537 (humanized variant of mAb C, bivalent human IgG1) (antibody, V domains shown)
VH: EVQLVESGGGLVQPGGSLRLSCAASGFTFSSFGMHWVRQAPGKGLEWVSYISSGSSIIYYADSVKGRFTISRDNAKNSLYLQMNSLRAEDTAVYYCARGGRLVWSPDYWGQGTLVTVSS
VL: DIVMTQSPLSLPVTPGEPASISCRSSQSLLNSGNQKNYLTWYLQKPGQPPQLLIYWASTRESGVPDRFTGSGSGTDFTLKISRVEAEDVGVYYCQNDYSYPFTFGSGTKLEIKR
notes: Human IgG1 with E233P/L234V/L235A/G236del/S267K
B4 displayed a Kd in experiment [5] of 42 nM. In other words, the double-digit nanomolar range.

B5: XENP28536 (mAb C[PD-1]_H1L1, bivalent human IgG1) (antibody, V domains shown)
VH: EVQLVESGGGLVQPGGSLRLSCAASGFTFSSFGMHWVRQAPGKGLEWVSYISSGSSIIYYADSVKGRFTISRDNAKNSLYLQMNSLRAEDTAVYYCARGGRLVWSPDYWGQGTLVTVSS
VL: DIVMTQSPDSLAVSLGERATINCKSSQSLLNSGNQKNYLTWYQQKPGQPPKLLIYWASTRESGVPDRFTGSGSGTDFTLTISSLQAEDVAVYYCQNDYSYPFTFGSGTKLEIK
notes: Bivalent human IgG1 with E233P/L234V/L235A/G236del/S267K
B5: the affinity in experiment [5], expressed as Kd, was 35.8 nM.

B6: mab_C[PD-1]_H1_L1.3 (bivalent IgG1) (antibody, V domains shown)
VH: EVQLVESGGGLVQPGGSLRLSCAASGFTFSSFGMHWVRQAPGKGLEWVSYISSGSSIIYYADSVKGRFTISRDNAKNSLYLQMNSLRAEDTAVYYCARGGRLVWSPDYWGQGTLVTVSS
VL: DIVMTQSPDSLAVSLGERATINCKSSQSLLSSGNQKNYLTWYQQKPGQPPKLLIYWASTRESGVPDRFTGSGSGTDFTLTISSLQAEDVAVYYCQNDYSYPFTFGSGTKLEIKR
notes: as for B2
Regarding B6, in experiment [2], the Kd is 10.8 nM, the koff was 0.00165 s⁻¹ and the kon was found to be 153000 M⁻¹ s⁻¹. For the same molecule, the “fold improved affinity over WT” value in experiment [3] was over 2 fold.

B7: XENP28539 (humanized variant of mAb C, bivalent human IgG1) (antibody, V domains shown)
VH: EVQLVESGGGLVKPGGSLRLSCAASGFTFSSFGMHWVRQAPGKGLEWVGYISSGSSIIYYADPVKGRFTISRDNSKNTLYLQMNSLKTEDTAVYYCARGGRLVWSPDYWGQGTLVTVSS
VL: DIVMTQSPLSLPVTPGEPASISCRSSQSLLNSGNQKNYLTWYLQKPGQPPQLLIYWASTRESGVPDRFTGSGSGTDFTLKISRVEAEDVGVYYCQNDYSYPFTFGSGTKLEIKR
notes: as for B4
On to B7, for which the binding result in experiment [1] is given as “no binding”.
